± gives the standard deviation of the averaged measurements.
Test: total protein half-life in vivo (active degradation + dilution); higher = more stable protein
[1] = E. coli NCM3722 delta-clpP delta-lon delta-hslV, growth: N-lim chemostat, doubling time 6 h
[2] = E. coli NCM3722 delta-clpP, growth: N-lim chemostat, doubling time 6 h
[3] = E. coli NCM3722 delta-lon, growth: N-lim chemostat, doubling time 6 h
[4] = E. coli NCM3722 delta-smpB, growth: N-lim chemostat, doubling time 6 h
[5] = wild type E. coli NCM3722, growth: C-lim chemostat, doubling time 3 h
[6] = wild type E. coli NCM3722, growth: C-lim chemostat, doubling time 6 h
[7] = wild type E. coli NCM3722, growth: C-lim chemostat, doubling time 12 h
[8] = wild type E. coli NCM3722, growth: N-lim chemostat, doubling time 6 h
[9] = wild type E. coli NCM3722, growth: N-lim chemostat, doubling time 12 h
[10] = wild type E. coli NCM3722, growth: P-lim chemostat, doubling time 6 h
[11] = wild type E. coli NCM3722, growth: P-lim chemostat, doubling time 12 h
[12] = E. coli NCM3722 delta-hslV, growth: N-lim chemostat, doubling time 6 h

Row | Sequence | total protein half-life in vivo [1] [h] | total protein half-life in vivo [2] [h] | total protein half-life in vivo [3] [h] | total protein half-life in vivo [4] [h] | total protein half-life in vivo [5] [h] | total protein half-life in vivo [6] [h] | total protein half-life in vivo [7] [h] | total protein half-life in vivo [8] [h] | total protein half-life in vivo [9] [h] | total protein half-life in vivo [10] [h] | total protein half-life in vivo [11] [h] | total protein half-life in vivo [12] [h]
1 | MEMLEEHRCFEGWQQRWRHDSSTLNCPMTFSIFLPPPRDHTPPPVLYWLSGLTCNDENFTTKAGAQRVAAELGIVLVMPDTSPRGEKVANDDGYDLGQGAGFYLNATQPPWATHYRMYDYLRDELPALVQSQFNVSDRCAISGHSMGGHGALIMALKNPGKYTSVSAFAPIVNPCSVPWGIKAFSSYLGEDKNAWLEWDSCALMYASNAQDAIPTLIDQGDNDQFLADQLQPAVLAEAARQKAWPMTLRIQPGYDHSYYFIASFIEDHLRFHAQYLLK | 5.79 ± 0.058 | 5.61 ± 0.89 | 6.09 ± 0.43 | 5.19 ± 0.2 | 3.5 ± 0.13 | 5.59 ± 0.15 | 13 ± 2.8 | 5.67 ± 0.38 | 8.798 ± 0.034 | 6.2 ± 0.11 | 11.9 ± 1.7 | –
2 | MEMLSGAEMVVRSLIDQGVKQVFGYPGGAVLDIYDALHTVGGIDHVLVRHEQAAVHMADGLARATGEVGVVLVTSGPGATNAITGIATAYMDSIPLVVLSGQVATSLIGYDAFQECDMVGISRPVVKHSFLVKQTEDIPQVLKKAFWLAASGRPGPVVVDLPKDILNPANKLPYVWPESVSMRSYNPTTTGHKGQIKRALQTLVAAKKPVVYVGGGAITAGCHQQLKETVEALNLPVVCSLMGLGAFPATHRQALGMLGMHGTYEANMTMHNADVIFAVGVRFDDRTTNNLAKYCPNATVLHIDIDPTSISKTVTADIPIVGDARQVLEQMLELLSQESAHQPLDEIRDWWQQIEQWRARQCLKYDTHSEKIKPQAVIETLWRLTKGDAYVTSDVGQHQMFAALYYPFDKPRRWINSGGLGTMGFGLPAALGVKMALPEETVVCVTGDGSIQMNIQELSTALQYELPVLVVNLNNRYLGMVKQWQDMIYSGRHSQSYMQSLPDFVRLAEAYGHVGIQISHPHELESKLSEALEQVRNNRLVFVDVTVDGSEHVYPMQIRGGGMDEMWLSKTERT | 5.76 ± 1.1 | 5.31 ± 0.18 | 5.03 ± 0.088 | 5.13 ± 0.46 | 3.03 ± 0.14 | 6.41 ± 0.94 | 11.1 ± 0.39 | 4.78 ± 0.1 | 8.81 ± 0.62 | 6.092 ± 0.014 | 12 ± 0.24 | 5.06 ± 0.41
3 | MEMTNAQRLILSNQYKMMTMLDPANAERYRRLQTIIERGYGLQMRELDREFGELKEETCRTIIDIMEMYHALHVSWSNLQDQQSIDERRVTFLGFDAATEARYLGYVRFMVNVEGRYTHFDAGTHGFNAQTPMWEKYQRMLNVWHACPRQYHLSANEINQIINA [P0A8W8] | 6.72 ± 0.27 | 6.41 ± 0.99 | 6.11 ± 0.3 | 5.32 ± 0.45 | 3.28 ± 0.18 | 6.14 ± 0.35 | 12.1 ± 0.18 | 5.83 ± 0.58 | 12.9 ± 2.1 | 6.41 ± 0.61 | > 16 | 6.154 ± 0.032
4 | MEMYFKRMKDEWTGLVEQADPPIRAKAAEIAVAHAHYLSIEFYRIVRIDPHAEEFLSNEQVERQLKSAMERWIINVLSAQVDDVERLIQIQHTVAEVHARIGIPVEIVEMGFRVLKKILYPVIFSSDYSAAEKLQVYHFSINSIDIAMEVMTRAFTFSDSSASKEDENYRIFSLLENAEEEKERQIASILSWEIDIIYKILLDSDLGSSLPLSQADFGLWFNHKGRHYFSGIAEVGHISRLIQDFDGIFNQTMRNTRNLNNRSLRVKFLLQIRNTVSQIITLLRELFEEVSRHEVGMDVLTKLLNRRFLPTIFKREIAHANRTGTPLSVLIIDVDKFKEINDTWGHNTGDEILRKVSQAFYDNVRSSDYVFRYGGDEFIIVLTEASENETLRTAERIRSRVEKTKLKAANGEDIALSLSIGAAMFNGHPDYERLIQIADEALYIAKRRGRNRVELWKASL [P0AA89] | 6.71 ± 1.4 | 3.48 ± 0.94 | 4.26 ± 0.88 | 2.81 ± 0.03 | 1.66 ± 0.26 | 3.16 ± 0.017 | 4.49 ± 0.37 | 3.21 ± 0.42 | 4.83 ± 0.27 | 1.49 ± 0.32 | 3.09 ± 0.069 | 2.854 ± 0.0076

Source: the supplement of paper PMC11246515
